Laboratory results published in paper PMC5437232, “Structure of human promyeloperoxidase (proMPO) and the role of the propeptide in processing and maturation” (The Journal of Biological Chemistry, 2017).

Molecular target: the molecule itself
Test: SAXS; proteins in solution, 50 mM PBS, pH 7.4; concentrated to 1 mg/liter; 20 °C; SIBYLS beam line 12.3.1; Guinier plots and pair-density distributions compared with the crystal structures

B1: dimeric mature leukocyte myeloperoxidase (complex)
light: not shown
heavy: TGVNCETSCVQQPPCFPLKIPPNDPRIKNQADCIPFFRSCPACPGSNITIRNQINALTSFVDASMVYGSEEPLARNLRNMSNQLGLLAVNQRFQDNGRALLPFDNLHDDPCLLTNRSARIPCFLAGDTRSSEMPELTSMHTLLLREHNRLATELKSLNPRWDGERLYQEARKIVGAMVQIITYRDYLPLVLGPTAMRKYLPTYRSYNDSVDPRIANVFTNAFRYGHTLIQPFMFRLDNRYQPMEPNPRVPLSRVFFASWRVVLEGGIDPILRGLMATPAKLNRQNQIAVDEIRERLFEQVMRIGLDLPALNMQRSRDHGLPGYNAWRRFCGLPQPETVGQLGTVLRNLKLARKLMEQYGTPNNIDIWMGGVSEPLKRKGRVGPLLACIIGTQFRKLRDGDRFWWENEGVFSMQQRQALAQISLPRIICDNTGITTVSKNNIFMSNSYPRDFVNCSTLPALNLASWREAS
modifications: heme covalently bound | glycosylated; heme covalently bound; interchain disulfide Cys-319-Cys-319 between the two H-chains
notes: Myeloperoxidase, human, 14.5-kDa light polypeptide (L-chain) of mature MPO; three N termini found by mass spectrometry: Gly-164, Val-165 and Thr-166; ends before the excised peptide that begins at Ala-273; numbers on the 745-aa primary translation product; Myeloperoxidase, human, 59-kDa heavy polypeptide (H-chain) of mature MPO; three N termini found by mass spectrometry: Thr-277, Gly-278 and …
For B1, the “stoichiometry N” value was 2.
